Test results from PMC7228847 (Cell host & microbe, 2020).

B1: TcsL_(1285-1804) (domain or fragment)
chain: TNVRINLDGNTRSFIVPVITTEQIRKNLSYSFYGSGGSYSLSLSPYNMNIDLNLVENDTWVIDVDNVVKNITIESDEIQKGELIENILSKLNIEDNKIILNNHTINFYGDINESNRFISLTFSILEDINIIIEIDLVSKSYKILLSGNCMKLIENSSDIQQKIDHIGFNGEHQKYIPYSYIDNETKYNGFIDYSKKEGLFTAEFSNESIIRNIYMPDSNNLFIYSSKDLKDIRIINKGDVKLLIGNYFKDDMKVSLSFTIEDTNTIKLNGVYLDENGVAQILKFMNNAKSALNTSNSLMNFLESINIKNIFYNNLDPNIEFILDTNFIISGSNSIGQFELICDKDKNIQPYFINFKIKETSYTLYVGNRQNLIVEPSYHLDDSGNISSTVINFSQKYLYGIDRYVNKVIIAPNLYTDEINITPVYKPNYICPEVIILDANYINEKINVNINDLSIRYVWDNDGSDLILIANSEEDNQPQVKIRFVNVFKSDTAADKLSFNFSDKQDVSVSKIISTFSLAA
B2: Recombinant human Fc-tagged SEMA6A extracellular domain (Fc fusion)
chain: GFPEDSEPISISHGNYTKQYPVFVGHKPGRNTTQRHRLDIQMIMIMNGTLYIAARDHIYTVDIDTSHTEEIYCSKKLTWKSRQADVDTCRMKGKHKDECHNFIKVLLKKNDDALFVCGTNAFNPSCRNYKMDTLEPFGDEFSGMARCPYDAKHANVALFADGKLYSATVTDFLAIDAVIYRSLGESPTLRTVKHDSKWLKEPYFVQAVDYGDYIYFFFREIAVEYNTMGKVVFPRVAQVCKNDMGGSQRVLEKQWTSFLKARLNCSVPGDSHFYFNILQAVTDVIRINGRDVVLATFSTPYNSIPGSAVCAYDMLDIASVFTGRFKEQKSPDSTWTPVPDERVPKPRPGCCAGSSSLERYATSNEFPDDTLNFIKTHPLMDEAVPSIFNRPWFLRTMVRYRLTKIAVDTAAGPYQNHTVVFLGSEKGIILKFLARIGNSGFLNDSLFLEEMSVYNSEKCSYDGVEDKRIMGMQLDRASSSLYVAFSTCVIKVPLGRCERHGKCKKTCIASRDPYCGWIKEGGACSHLSPNSRLTFEQDIERGNTDGLGDCHNSFVALNGHSSSLLPSTTTSDSTAQEGYESRGGMLDWKHLLDSPDSTDPLGAVSSHNHQDKKGVIRESYLKGHDQLVPVT
B3: Recombinant human Fc-tagged SEMA6B extracellular domain (Fc fusion)
chain: LFPEEPPPLSVAPRDYLNHYPVFVGSGPGRLTPAEGADDLNIQRVLRVNRTLFIGDRDNLYRVELEPPTSTELRYQRKLTWRSNPSDINVCRMKGKQEGECRNFVKVLLLRDESTLFVCGSNAFNPVCANYSIDTLQPVGDNISGMARCPYDPKHANVALFSDGMLFTATVTDFLAIDAVIYRSLGDRPTLRTVKHDSKWFKEPYFVHAVEWGSHVYFFFREIAMEFNYLEKVVVSRVARVCKNDVGGSPRVLEKQWTSFLKARLNCSVPGDSHFYFNVLQAVTGVVSLGGRPVVLAVFSTPSNSIPGSAVCAFDLTQVAAVFEGRFREQKSPESIWTPVPEDQVPRPRPGCCAAPGMQYNASSALPDDILNFVKTHPLMDEAVPSLGHAPWILRTLMRHQLTRVAVDVGAGPWGNQTVVFLGSEAGTVLKFLVRPNASTSGTSGLSVFLEEFETYRPDRCGRPGGGETGQRLLSLELDAASGGLLAAFPRCVVRVPVARCQQYSGCMKNCIGSQDPYCGWAPDGSCIFLSPGTRAAFEQDVSGASTSGLGDCTGLLRASLSEDRAGLVSVNLLVTSS

Columns and labels:
Assay in all cases: BLI
[1] = biological target: B2
[2] = biological target: B3
[3] = biological target: TcsL (Paeniclostridium sordellii lethal toxin), recombinant His-tagged, full length (Paeniclostridium sordellii strain 6018, UniProt Q46342)

Binder	binding result [1]	binding result [2]	Kd [3] [nM]
B1	binds	binds	
B2			~40
B3			~60
